The target in test [1] is HLA-B*08:01. Put plainly: IEDB peptide-MHC binding, purified MHC/competitive/fluorescence; filed as Kd, often an IC50 or EC50 that approximates it; ≥ and ≤ were set here for values at or beyond the usual limits of such assays. Particulars: source organism: Shigella boydii Sb227.
Test [2] addresses HLA-A*02:01. The test is described as above.
For test [3], the target named is HLA-B*15:17. Briefly: IEDB peptide-MHC binding, purified MHC/direct/fluorescence; filed as Kd, often an IC50 or EC50 that approximates it; ≥ and ≤ were set here for values at or beyond the usual limits of such assays.
The next test deals with HLA-A*26:01. The test is described as above.
Test [4] deals with HLA-A*01:01. The test is described as above.
The next test concerns the target HLA-B*18:01. The test is described as above.
The target of a further test is HLA-B*58:01. Described as above.
Test [5] addresses HLA-A*11:01. The test is described as above.
The next test addresses HLA-B*07:02. The test is described as above.
A further test concerns the target HLA-A*31:01. The description is as above.
The next test deals with HLA-B*57:01. The description is as above.
Test [6] addresses HLA-B*39:01. Put plainly: IEDB peptide-MHC binding, purified MHC/competitive/fluorescence; filed as Kd, often an IC50 or EC50 that approximates it; ≥ and ≤ were set here for values at or beyond the usual limits of such assays.
The next test deals with HLA-A*26:03. The test is described as above.
In the next test the target is HLA-A*68:02. Described as above.
The target in test [7] is HLA-A*26:02. Described as above.
A further test concerns the target HLA-A*02:03. The description is as above.
The target in the next test is HLA-A*30:01. Described as above. Particulars: source organism: Giardia lamblia ATCC 50803.
Test [8] has as its target HLA-B*15:01. Described as above.
Test [9] deals with HLA-A*26:02. Put plainly: IEDB peptide-MHC binding, purified MHC/direct/fluorescence; filed as Kd, often an IC50 or EC50 that approximates it; ≥ and ≤ were set here for values at or beyond the usual limits of such assays.
A further test concerns the target HLA-B*08:03. Described as above. Particulars: source organism: Yersinia enterocolitica subsp. enterocolitica 8081.
Test [10] deals with HLA-B*39:01. The description is as above. Particulars: source organism: Yersinia enterocolitica subsp. enterocolitica 8081.
The target in the next test is HLA-B*48:01. Described as above.
For a further test, the target named is HLA-B*40:01. The test is described as above.
For a further test, the target named is HLA-B*08:02. Described as above. Particulars: source organism: Yersinia enterocolitica subsp. enterocolitica 8081.
Test [11] has as its target HLA-A*02:01. Described as above.
The next test concerns the target HLA-B*46:01. Described as above.
Another test deals with HLA-A*03:01. The test is described as above.
A further test has as its target HLA-B*27:05. The test is described as above.
Test [12] concerns the target HLA-B*15:01. Described as above. Particulars: source organism: Yersinia pestis.
The target in test [13] is HLA-A*01:01. Briefly: IEDB peptide-MHC binding, purified MHC/competitive/fluorescence; filed as Kd, often an IC50 or EC50 that approximates it; ≥ and ≤ were set here for values at or beyond the usual limits of such assays. Particulars: source organism: Yersinia pestis Nepal516.
The next test concerns the target HLA-A*02:06. The description is as above. Particulars: source organism: Yersinia pestis Nepal516.
The target in a further test is HLA-A*69:01. Briefly: IEDB peptide-MHC binding, purified MHC/direct/fluorescence; filed as Kd, often an IC50 or EC50 that approximates it; ≥ and ≤ were set here for values at or beyond the usual limits of such assays.
In test [14] the target is HLA-B*08:01. The test is described as above.
The target of a further test is HLA-B*15:09. Put plainly: IEDB peptide-MHC binding, purified MHC/competitive/fluorescence; filed as Kd, often an IC50 or EC50 that approximates it; ≥ and ≤ were set here for values at or beyond the usual limits of such assays.
In a further test the target is HLA-B*51:01. Briefly: IEDB peptide-MHC binding, purified MHC/direct/fluorescence; filed as Kd, often an IC50 or EC50 that approximates it; ≥ and ≤ were set here for values at or beyond the usual limits of such assays. Particulars: source organism: Camelpox virus M-96.
The target in test [15] is HLA-B*15:17. Briefly: IEDB peptide-MHC binding, purified MHC/competitive/fluorescence; filed as Kd, often an IC50 or EC50 that approximates it; ≥ and ≤ were set here for values at or beyond the usual limits of such assays. Particulars: source organism: Vaccinia virus.
For test [16], the target named is HLA-A*11:01. The test is described as above. Particulars: source organism: Vaccinia virus.
The mark [17] stands for this setting: source organism: Giardia lamblia ATCC 50803.
Setting [18] is: source organism: Escherichia coli O157:H7 str. EDL933.
The mark [19] stands for this setting: source organism: Yersinia pestis.
[20] abbreviates: source organism: Yersinia pestis Nepal516.
[21] abbreviates: source organism: Francisella tularensis subsp. holarctica LVS.
Setting [22] is: source organism: Francisella tularensis subsp. tularensis FSC033.
[23] abbreviates: source organism: Francisella tularensis subsp. tularensis FSC198.
Setting [24] is: source organism: Camelpox virus M-96.
Where [25] appears, read: source organism: Vaccinia virus.

As a reminder, the Kd is the equilibrium constant for the complex coming apart. A high value points to a looser complex. In the case of FLSHKIHVI, the dissociation constant Kd with HLA-B*08:01 [1] was determined as 0.0861 µM; with HLA-A*02:01 [2] (source organism: Shigella boydii Sb227), 0.0016 µM.

On to FMKVKFEAL, for which the Kd with HLA-B*15:17 [3] (setting [17]), in the test with HLA-A*26:01 (setting [17]), in the test with HLA-A*01:01 [4] (setting [17]), in the test with HLA-B*18:01 (setting [17]), with HLA-B*58:01 (setting [17]) and with HLA-A*11:01 [5] (setting [17]) was at least 20 µM throughout. The Kd is at least 20 µM in the test with HLA-B*07:02 (setting [17]); at least 20 µM with HLA-A*31:01 (setting [17]); at least 20 µM with HLA-B*57:01 (setting [17]); at least 20 µM with HLA-B*39:01 [6] (setting [17]); at least 20 µM with HLA-A*26:03 (setting [17]); 4.62 µM in the test with HLA-A*68:02 (setting [17]). In addition, the dissociation constant (Kd) is at least 20 µM with HLA-A*26:02 [7] (setting [17]); 0.0298 µM in the test with HLA-A*02:03 (setting [17]); 0.217 µM with HLA-A*02:01 [2] (setting [17]); 4.26 µM in the test with HLA-A*30:01; 0.168 µM in the test with HLA-B*15:01 [8] (setting [17]).

Take FTHREQLFM: the Kd with HLA-A*26:01 (setting [18]) is 0.059 µM; with HLA-A*26:02 [9] (setting [18]) it was 0.028 µM.

In the test with HLA-A*26:03 (source organism: Entamoeba histolytica HM-1:IMSS), PTIPEQKCM registered an equilibrium dissociation constant (Kd) of at least 20 µM.

With QWSPGPGRL, the Kd in the test with HLA-B*08:03, in the test with HLA-A*26:01 (source organism: Yersinia enterocolitica subsp. enterocolitica 8081), with HLA-B*39:01 [10], in the test with HLA-B*18:01 (setting [19]), with HLA-B*58:01 (setting [19]) and with HLA-B*07:02 (setting [19]) was at least 20 µM in each case. Moreover, the Kd in the test with HLA-B*48:01 (setting [19]), with HLA-B*40:01 (setting [19]), with HLA-B*08:02, with HLA-B*57:01 (setting [19]), with HLA-A*02:01 [11] (setting [19]) and in the test with HLA-B*46:01 (setting [19]) was at least 20 µM each time. Besides, the dissociation constant (Kd) with HLA-A*03:01 (setting [19]) is 0.719 µM; with HLA-B*27:05 (setting [19]), at least 20 µM; in the test with HLA-B*15:01 [12], at least 20 µM; in the test with HLA-A*01:01 [13] it was at least 20 µM; in the test with HLA-A*02:06, 0.157 µM; with HLA-A*26:03 (setting [20]), at least 20 µM. The dissociation constant Kd was at least 20 µM with HLA-A*26:02 [7] (setting [20]) and 4.85 µM with HLA-A*02:03 (setting [20]).

Regarding REMGIVDLL, the Kd with HLA-A*69:01 (setting [21]) was at least 20 µM; with HLA-B*15:17 [3] (setting [21]), at least 20 µM; with HLA-A*01:01 [4] (setting [21]), at least 20 µM; with HLA-B*18:01 (setting [21]), 0.514 µM; with HLA-B*58:01 (setting [21]), at least 20 µM; with HLA-A*11:01 [5] (setting [21]), at least 20 µM. The dissociation constant (Kd) with HLA-B*07:02 (setting [21]) is at least 20 µM; in the test with HLA-A*26:02 [9] (setting [22]) it was at least 20 µM; with HLA-B*48:01 (setting [21]), 0.0932 µM; with HLA-B*08:01 [14] (setting [22]), at least 20 µM; with HLA-B*40:01 (setting [21]), 0.0014 µM; with HLA-A*31:01 (setting [21]), at least 20 µM. Moreover, the Kd was at least 20 µM in the test with HLA-B*57:01 (setting [21]); at least 20 µM in the test with HLA-A*02:01 [11] (setting [21]); at least 20 µM with HLA-B*27:05 (setting [21]); 4 µM with HLA-B*39:01 [6] (setting [23]); at least 20 µM with HLA-A*68:02 (setting [23]); at least 20 µM with HLA-B*15:09 (setting [23]).

With RVATENIAV, the equilibrium dissociation constant (Kd) is 0.156 µM with HLA-A*69:01 (setting [24]); at least 20 µM in the test with HLA-B*51:01; at least 20 µM with HLA-A*01:01 [4] (setting [24]); at least 20 µM with HLA-B*18:01 (setting [24]); at least 20 µM in the test with HLA-B*58:01 (setting [24]); 0.226 µM with HLA-B*07:02 (setting [24]). Also, the dissociation constant Kd was at least 20 µM in the test with HLA-B*48:01 (setting [24]); at least 20 µM in the test with HLA-B*08:01 [14] (source organism: Variola virus); at least 20 µM with HLA-B*40:01 (setting [24]); at least 20 µM in the test with HLA-A*31:01 (setting [24]); at least 20 µM with HLA-B*57:01 (setting [24]); 0.0227 µM with HLA-A*02:01 [11] (setting [24]). For the same sequence, the Kd with HLA-B*46:01 (setting [24]) was at least 20 µM; with HLA-A*03:01 (source organism: Variola virus), at least 20 µM; in the test with HLA-B*27:05 (setting [24]), at least 20 µM; with HLA-B*15:17 [15], at least 20 µM; with HLA-B*39:01 [6] (setting [25]) it was 2.81 µM; with HLA-A*11:01 [16] it was at least 20 µM. Also, the Kd with HLA-B*15:09 (setting [25]) is at least 20 µM; with HLA-B*15:01 [8] (setting [25]), 0.445 µM.

For STPAILHIM, the Kd in the test with HLA-A*26:02 [9] (source organism: Listeria monocytogenes serotype 4b str. H7858) was determined as 0.003 µM.

Source of the values: the Immune Epitope Database (IEDB).
